Assay results published in the supplement of paper PMC12042874.
± gives the uncertainty stated by the source.

Experiment: amyloid nucleation score (Sup35N fusion, yeast selection) (log enrichment); library NNK3; higher = more nucleation; inactive = no reads after selection
Outline: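 Peptides of 20 random codons, each fused to Sup35N, were expressed in psi-negative yeast. Cells were induced with 100 μM copper sulfate for 24 hours and grown 7 days at 30°C on medium lacking adenine and uracil, and plasmid inserts before and after selection were Illumina-sequenced. Nucleation scores are DiMSum log enrichments of output over input reads, centred on the mode score of non-aggregating sequences, and sequences under 100 input reads were excluded.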

Substance	amyloid nucleation score
YFLGRVRK	inactive
YFLRREQLYNLRKGK	inactive
YFLYLFRSVQCMLCHALNFN	0.586 ± 0.15
YFNLSRIMLNELMCLVIIRQ	inactive
YFPGGTLDY	inactive
YFSRMVKVRSNI	inactive
YFWEASGFHFIRLVTTASTQ	inactive
YFYSHRYI	inactive
YGCKANSPLL	inactive
YGCRINLIDRYALKYCVTED	inactive
YGGFLKFSRYGIGRYIHLQL	inactive
YGKQVLWN	inactive
YGLFGCLTSVWACRGCYGVV	inactive
YGLSFHDLYGCCLRLGIGMD	1.63 ± 0.081
YGQGSGGIGRRVAGQDCNLI	inactive
YGRLCDALKGSWYCSIYHGS	1.79 ± 0.074
YGSIIV	inactive
YGSKWTLKVFWIMMCFDELP	inactive
YGYVLTSTVGVILVYWSYSC	inactive
YHCVRLFRVPMTISRGDAQK	-0.271 ± 0.59
YHLLFIVKAYIGVILNFLRS	inactive
YIARCVVTSLVLNKTCMRIY	inactive
YICTNNLTYNSMMQIFSKIM	0.394 ± 0.33
YICVMWMYSCKLSLPMWHPR	inactive

Substance	amyloid nucleation score
YIEILE	inactive
YIETISPFLCGCYSIFSPMI	2.8 ± 0.084
YIEWLDFR	inactive
YIFDMSTGQDSMVY	inactive
YIFQICRFGIYYVRSVYTTY	inactive
YIGFGGDCSVSAFVTCQLGF	inactive
YIINARPYVVVTDGLKDETA	inactive
YINHSSSTA	inactive
YINLFGKWA	1.53 ± 0.1
YINLVFQNCAVDGRSSKGYW	2.67 ± 0.081
YIPVSTFM	-0.135 ± 0.6
YISEWSLSP	0.909 ± 0.13
YISFFGGFANNGYCWWICAS	1.81 ± 0.069
YITVRR	-0.297 ± 1.1
YIVNLGKFKCQNLMRSCRLK	1.07 ± 0.12
YKDRR	inactive
YKFIRFFSSMT	inactive
YKFLLFFFYSISAFGNDSCD	inactive
YKIRFSLYVEHSVVLYVQY	inactive
YKLKLIKEFCIGIRC	inactive
YKSNLLSYGALLISDFVLVR	-0.108 ± 0.63
YKSSNRSFFGIMANQPRLGC	inactive
YLASEVYRV	inactive
YLCLWCVEQLMYCRPRRLEE	inactive

Substance	amyloid nucleation score
YLGCSINLGTEDIIYAESEH	inactive
YLGFFTAYA	inactive
YLIDVGL	inactive
YLLFMYFLLSSCCSLPALPM	1.4 ± 0.12
YLNISILFNCVWDKVFFRYH	inactive
YLNRLCLNTNISRAVRCY	inactive
YLNSDRSYEMDTFRFGYLLY	inactive
YLRDF	inactive
YLRGY	inactive
YLSSIW	inactive
YLTNNLFRFLEYR	inactive
YLTVCRGRNTEGYGWEVNS	inactive
YLVGCWNYESKN	0.234 ± 0.25
YLVWVFPEWPC	1.39 ± 0.13
YLYLWSFCMSMVGFSIYRES	inactive
YMAVKRSWSNSMTMIHLNSV	inactive
YMESVARNSLRVSDCNAK	0.7 ± 0.14
YMIDPYKEEVLPP	inactive
YMLCC	inactive
YMLMGMVLRDRDRT	1.69 ± 0.088
YMRDCYSNSGWNIYRSKRLS	inactive
YMSFIYGSKR	1.78 ± 0.07
YMSRKPV	inactive
YNCFTHSPWRKH	inactive

Substance	amyloid nucleation score
YNEHLQLAVWRYALTVGKVW	inactive
YNMFACGVCTLFKVGKANKF	2.96 ± 0.074
YNNCYRCEN	inactive
YNRLNRL	inactive
YNSRDDSIKFFFVRSCILTY	inactive
YNSSYFYMMCPFLSSFSPFS	2.81 ± 0.067
YNVTFQSPVTSWDNHLIMA	inactive
YPHLMK	1.54 ± 0.12
YPNMWLDEYRMVFAYYLPCG	inactive
YPWGEGNGYTCGV	inactive
YQFFDASLIAR	inactive
YQIDQSLCNWCYLGGSWFIA	2.39 ± 0.072
YQSGTLWCQCIWFKMRWRVH	inactive
YQVVVGNFCLLHSVCI	0.124 ± 0.38
YRDTICPYETAREDMNYLLG	inactive
YRESDKVTFWLYLSRVDDLD	2.06 ± 0.083
YRFFVKYMLLIYLINFNIFL	0.057 ± 0.6
YRFTRKDSPSSKVKMISNSW	inactive
YRHICKYCFGQPVGHH	-1.1 ± 1.9
YRNMFQPRRNEAARQQLSST	inactive
YRPFWSA	inactive
YRRYWLSGRSFRADFIDNKT	inactive
YRSFSSKDVSKL	inactive
YRTARVSG	inactive

Substance	amyloid nucleation score
YRTDDERCDMTTVLYSYMEY	inactive
YRVSEELTLLY	inactive
YRWYQINSGSYLYLASRWCW	inactive
YRYMVRITCGCFHAVNDT	1.19 ± 0.14
YRYYCWNCCELGIDGTMWVA	-0.526 ± 0.45
YSALNSYSWYVTPFYILYWF	2.56 ± 0.084
YSAVSTSVMCAE	inactive
YSCFFIPWRVGAYRTDNFRS	inactive
YSFAVPSNLLLLK	-0.302 ± 0.52
YSGKYVCAVGF	inactive
YSGLGSIVTNGYSYIYGEVL	inactive
YSIIVSRNRNGRLRFRWSNG	-0.368 ± 0.8
YSKYSYSCVDGMIW	inactive
YSLFGWVSMFGC	inactive
YSMDTPCFINSGVFSADPNL	inactive
YSMVFHTWCMRVMRGVFIWM	inactive
YSNHLD	inactive
YSNYCGQFSIVPIVFFYIVI	1.1 ± 0.15
YSQLRARMKCVYLGY	inactive
YSSPRSVNSYGLDYVYRTA	inactive
YSVFGVNKQMAFAVCDWHHC	0.477 ± 0.17
YSVMSNHETIYYMSVS	inactive
YTDSLVLPHGHMIGRVQSFY	inactive
YTFNVNITPFTMYHSFIYFS	3.08 ± 0.051

Substance	amyloid nucleation score
YTIYIIIRW	1.03 ± 0.084
YTKATHSVMFGFTVIVVF	inactive
YTLMFNCRFALLFYYTFSYG	inactive
YTMVWFLSSYSNY	inactive
YTVSS	inactive
YVFSTWSSP	inactive
YVGTYNFICEAYALDMTEQW	inactive
YVICVISVQRWTM	inactive
YVIICYST	-0.539 ± 1
YVIITGRKQGITNM	inactive
YVKGRSETCPKDRIKGVRSD	inactive
YVKPDDDAQVKVGWGQFSVG	inactive
YVLKLSRYMPN	inactive
YVLNKGFWGGNTLQSWRVSD	inactive
YVLRLASCSFTPVSEVHLSW	inactive
YVMNHTLGAILNAFRGI	1.04 ± 0.17
YVNLCLGANPRSYMFKYGTH	0.197 ± 0.66
YVNLHPMLATAAIYVNSSAG	inactive
YVPIIWYASQHLVPSKSYSA	inactive
YVRIWSFMNYAVMVSITLIV	inactive
YVRWCQWYGETDGPCCRNTV	inactive
YVSCK	inactive
YVVFFDFLSQTVIWVSPGRF	inactive
YVVPRFTVMGEQKKCQWRSL	inactive

Substance	amyloid nucleation score
YVWMKGHNHYFFESMDVYLM	inactive
YVYSVFFYRWW	inactive
YWAQLPNPPYLLCPH	inactive
YWFDSPPSFRAYPCWNR	inactive
YWLGA	inactive
YWLIRDLWRGRGS	inactive
YWLRVIKRHRDRHR	inactive
YWMPIDLGFSSLNWPESSRS	inactive
YWNFYSSNLYWT	inactive
YWVRNVGYRRNSSSCTWSRG	inactive
YWVTLFRSARVWMITLNLFD	inactive
YYCMFVGD	1.24 ± 0.15
YYDMIMLPAKSDANRCYGCA	inactive
YYFCMLS	2.55 ± 0.072
YYFFRKYEENFSGSNTGLVI	inactive
YYFRAQADCFMYICVLDLDG	inactive
YYFTFFIKCMRNIMVNSMAA	inactive
YYNTYCTVDIYYLNPCVNLQ	3.01 ± 0.056
YYRLFLI	inactive
YYSVMCRVRVA	inactive
